# Source: US12460245B2, “Luciferase sequences utilizing infrared-emitting substrates to produce enhanced luminescence” (Promega Corporation, priority 2014, dated 2025)
# Where “and” joins values, the source holds several entries; their conditions need not be identical. Equal entries are not always repeated.
# Legend:
# ATG 1240 = assay: Mimicry of tissue attenuation using long pass filters, transfected HEK293T cells; assay type: cell-based, click beetle; conditions: HEK293T cells expressing ATG 1240
# Method: A transfection complex was prepared by diluting ATG 1240 DNA or Luc2 DNA (pF4Ag-Luc2) to 100 ng/μL, and then 2× serial dilutions prepared in 50 ng/μL pGEM carrier DNA. 40 μL of the diluted DNA was the mixed with 160 μL phenol red free OptiMEM and 16 μL of FuGENE® HD and incubated for 20 min. 5 μL of each transfection complex was added to wells of a 96-well black assay plates and then 100 μL of diluted HEK293T cells (200,000/mL in DMEM+10% FBS) was added. The cells were grown overnight at 37° C. with CO2.
# To assay the cells, 4 mM D-luciferin, 2 mM PBI-4813 and 2 mM PBI-4739 substrate solutions were prepared in DMEM+10% FBS. 100 μL of the D-luciferin solution was added to cells expressing Luc2 and ATG 1240, and 100 μL of PBI-4813 or PBI-4739 solution was added to ATG 1240 expressing cells. Samples were incubated for 10 min at 37° C., and luminescence detected on GloMax® Discover (heated to 37° C.) with no filter, 610 nm Long Pass (LP) filter, 665 nm LP filter, 695 nm LP filter, 720 nm LP filter or 760 nm LP filter.
# [1] = Substrate inhibition of luciferase activity at high substrate concentration; assay type: biochemical; conditions: PBI-4813 at concentrations greater than ten times the Km
# [2] = Luminescence of ATG 1230 and ATG 1240 cell lysates, GloMax Discover with red-sensitive PMT; assay type: biochemical; conditions: for Luminescence, PBI-4739 / Luminescence, PBI 4813: cell lysate; for Luminescence, PBI-4739: 20 μM PBI-4739; for Luminescence, PBI 4813: 20 μM PBI-4813, GloMax Discover red-sensitive PMT; for PBI-4813/PBI-4739: ratio of luminescence with the two substrates
# Method: (§1) 2. Cell lysates were prepared from cells containing the variants listed in Table 3 by diluting 100 μL of induced culture with 100 μL of lysis buffer (0.3×PLB, 0.006U RQ DNAse1) using a Tecan liquid handling robot. 50 μL of each cell lysate was assayed with either PBI-4813 or PBI-4739 (20 μM in Bright-Glo™ assay buffer containing 1 mM ATP), and luminescence detected on an ImageQuant CCD imager. Luminescence of the variants was normalized to CBR luciferase (FIG. 8).
# Variant clones identified as ATG 1230 (CBR+389F+444R+251S) and ATG 1240 (CBR+334S+351R) were further evaluated for their luminescence, spectral property, Km and live cell kinetics with either PBI-4813 or PBI-4739. These variants were cloned and expressed as described in Example 2 except the template was pF4Ag-CBR, i.e., no HALOTAG®.
# A. Luminescence with PBI-4813 and PBI-4739. Cell lysates of these variant clones were prepared and assayed for luminescence as described in Example 6. Luminescence was detected on a GloMax® Discover equipped with a red-sensitive photomultiplier tube (PMT) and compared to CBR luciferase (Table 5 and FIG. 10).
# [3] = Combinations of H-acceptor and library screen mutants, lysate luminescence; assay type: biochemical; conditions: for Luminescence normalized to CBR luciferase, D-LH2 (luciferin): substrate D-LH2 (luciferin); for Luminescence normalized to CBR luciferase, PBI-4739: substrate PBI-4739; for Luminescence normalized to CBR luciferase, PBI-4813: substrate PBI-4813
# Method: as §1
# Combinations of the Hydrogen acceptor mutants identified in Example 6 were designed and prepared using the QuikChange Multi Site-Directed Mutagenesis Kit (Agilent). Variants were cloned and expressed as described in Example 2 except the template was pF4Ag-CBR. Variants were screened as described in Example 6. Luminescence of the variants using luciferin (“D-LH2”), PBI-4813, and PBI-4739 was normalized to CBR luciferase (Table 4 and FIG. 9).
# [4] = Recombination of ATG 1240 library mutants, lysate luminescence; assay type: biochemical
# Excerpt: 2. […] Luminescence of the variants was normalized to CBR luciferase (FIG. 8). Combinations of the ATG 1240 library mutants identified in Example 9 were designed and prepared using DNA shuffling ([…] USA 91:10747-10751). Briefly, a library of mutant genes was created via DNA shuffling. The mutant genes were then cloned into the pF4Ag vector and screened as described in Example 6. Luminescence was detected on a GloMax® Discover Multimode Detection System and normalized to ATG-1240 luciferase (Table 8 and FIG. 15).
# [5] = listed as 251S + 389F + 444R (343 template)
molecule,measurement,setting,value
"O=C(O)[C@H]1CSC(c2nc3ccc(O)cc3s2)=N1 [D-luciferin, D-(−)-2-(6′-hydroxy-2′-benzoth-iazolyl)-Δ^2-thiazolin-4-carboxylic acid]",luminescence of ATG 1240 when light is attenuated with long pass filters,ATG 1240; 37° C.,may be brighter than with PBI-4739
same,luminescence of ATG 1240 at the greatest light attenuation,ATG 1240; long pass filters,comparable
CBR: click beetle red luciferase polypeptide of SEQ ID NO: 1 (protein) MVKREKNVIYGPEPLHPLEDLTAGEMLFRALRKHSHLPQALVDVVGDESLSYKEFFEATVLLAQSLHNCGYKMNDVVSICAENNTRFFIPVIAAWYIGMIVAPVNESYIPDELCKVMGISKPQIVFTTKNILNKVLEVQSRTNFIKRIIILDTVENIHGCESLPNFISRYSDGNIANFKPLHFDPVEQVAAILCSSGTTGLPKGVMQTHQNICVRLIHALDPRYGTQLIPGVTVLVYLPFFHAFGFHITLGYFMVGLRVIMFRRFDQEAFLKAIQDYEVRSVINVPSVILFLSKSPLVDKYDLSSLRELCCGAAPLAKEVAEVAAKRLNLPGIRCGFGLTESTSAIIQTLGDEFKSGSLGRVTPLMAAKIADRETGKALGPNQVGELCIKGPMVSKGYVNNVEATKEAIDDDGWLHSGDFGYYDEDEHFYVVDRYKELIKYKGSQVAPAELEEILLKNPCIRDVAVVGIPDLEAGELPSAFVVKQPGTEITAKEVYDYLAERVSHTKYLRGGVRFVDSIPRNVTGKITRKELLKQLLVKAGGV,inhibition of luciferase activity by PBI-4813,[1],inhibits the activity
same,"Luminescence, PBI-4739",[2],"17,431"
same,"Luminescence, PBI 4813",[2],"98,556"
same,PBI-4813/PBI-4739,[2],5.7
same,"Luminescence normalized to CBR luciferase, D-LH2 (luciferin)",[3],1.0
same,"Luminescence normalized to CBR luciferase, PBI-4739",[3],1.0
same,"Luminescence normalized to CBR luciferase, PBI-4813",[3],1.0
5G5: ATG 1240 variant S51N + S444R (SEQ ID NO: 4) (protein) MVKREKNVIYGPEPLHPLEDLTAGEMLFRALRKHSHLPQALVDVVGDESLNYKEFFEATVLLAQSLHNCGYKMNDVVSICAENNTRFFIPVIAAWYIGMIVAPVNESYIPDELCKVMGISKPQIVFTTKNILNKVLEVQSRTNFIKRIIILDTVENIHGCESLPNFISRYSDGNIANFKPLHFDPVEQVAAILCSSGTTGLPKGVMQTHQNICVRLIHALDPRYGTQLIPGVTVLVYLPFFHAFGFHITLGYFMVGLRVIMFRRFDQEAFLKAIQDYEVRSVINVPSVILFLSKSPLVDKYDLSSLRELCCGAAPLAKEVAEVAAKRLNLPGISCGFGLTESTSAIIQTLRDEFKSGSLGRVTPLMAAKIADRETGKALGPNQVGELCIKGPMVSKGYVNNVEATKEAIDDDGWLHSGDFGYYDEDEHFYVVDRYKELIKYKGRQVAPAELEEILLKNPCIRDVAVVGIPDLEAGELPSAFVVKQPGTEITAKEVYDYLAERVSHTKYLRGGVRFVDSIPRNVTGKITRKELLKQLLVKAGGV,"Luminescence normalized to ATG-1240 luciferase, D-LH2",[4]; substrate D-LH2,2.8
same,"Luminescence normalized to ATG-1240 luciferase, PBI-4739",[4]; substrate PBI-4739,3.8
same,"Luminescence normalized to ATG-1240 luciferase, PBI-4813",[4]; substrate PBI-4813,4.0
"ATG 1230: CBR variant I389F, S444R, G251S (SEQ ID NO: 3) (protein) MVKREKNVIYGPEPLHPLEDLTAGEMLFRALRKHSHLPQALVDVVGDESLSYKEFFEATVLLAQSLHNCGYKMNDVVSICAENNTRFFIPVIAAWYIGMIVAPVNESYIPDELCKVMGISKPQIVFTTKNILNKVLEVQSRTNFIKRIIILDTVENIHGCESLPNFISRYSDGNIANFKPLHFDPVEQVAAILCSSGTTGLPKGVMQTHQNICVRLIHALDPRYGTQLIPGVTVLVYLPFFHAFGFHITLSYFMVGLRVIMFRRFDQEAFLKAIQDYEVRSVINVPSVILFLSKSPLVDKYDLSSLRELCCGAAPLAKEVAEVAAKRLNLPGIRCGFGLTESTSAIIQTLGDEFKSGSLGRVTPLMAAKIADRETGKALGPNQVGELCFKGPMVSKGYVNNVEATKEAIDDDGWLHSGDFGYYDEDEHFYVVDRYKELIKYKGRQVAPAELEEILLKNPCIRDVAVVGIPDLEAGELPSAFVVKQPGTEITAKEVYDYLAERVSHTKYLRGGVRFVDSIPRNVTGKITRKELLKQLLVKAGGV",inhibition of luciferase activity by PBI-4813,[1],inhibits the activity
same,"Luminescence, PBI-4739",[2],"26,595"
same,"Luminescence, PBI 4813",[2],"310,342"
same,PBI-4813/PBI-4739,[2],11.7
same,"Luminescence normalized to CBR luciferase, D-LH2 (luciferin)",[3]; [5],0.6 and 0.5
same,"Luminescence normalized to CBR luciferase, PBI-4739",[3]; [5],1.6 and 1.4
same,"Luminescence normalized to CBR luciferase, PBI-4813",[3]; [5],3.4 and 3.2
